Tests used:
PKC-δ (purified isoform) [1] = target: T1, PKC-δ (purified isoform); experiment: competitive ELISA, coated purified PKC-δ, vs anti-PKC δ (SC-213); PRE 200 µM
T1 construct: also called PKC-delta
Description: (§1) Greiner 96 well ELISA plates were coated with the appropriate PKC isoform diluted in PBSN (PBS with Calcium/Magnesium+0.05% Sodium azide w/w). 50 μL/well at 250 ng/mL was used. Control wells contained PBSN only. Plates were incubated overnight at 4° C.
(§2) The plates were washed 3 times with 200 μL of dH₂O per well, then 100 μL of blocking solution was added per well and the plate incubated for 1 h at 37° C. The washing steps with dH₂O were repeated and 50 μL of the appropriate PRE solution (PRE stock solution [20 mM in DMSO] diluted in PBSN) was added and the plate incubated for 1 h at room temperature.
(§3) 50 μL of 1:1000 dilution of Alkaline Phosphatase (AP) conjugated antibody (anti-rabbit for all except zeta, which was anti-goat) was then added and the plate incubated for 1 h at room temperature. Washing with dH₂O was then repeated. Finally, 100 μL of pNPP solution in pNPP buffer (2 mM MgCl₂, 100 mM Sodium bicarbonate in water, pH 9.8) was added to all wells and incubated for 8 minutes for α, βI, βII ε, and ζ, or for 15-20 mins for δ (until sufficient coloration is observed). The reaction was stopped by addition of Stop solution (2N NaOH) and the absorbance at 405 nm was read on a Galaxy Plate reader.

[2] = target: T2, PKC-βI (purified isoform) (Homo sapiens (Human), UniProt P05771 2-671); experiment: competitive ELISA, coated purified PKC-βI, vs anti-PKC βI (SC-209); PRE 50 µM
T2 construct: also called PKC-beta I; PKC beta 1
Description: as §1, §2, §3

[3] = target: T3, PKC-ε (endogenous, IMR-32 lysate) (human, UniProt Q02156 1-737); experiment: WB competition Protocol B, IMR-32 extract, vs anti-PKC-ε Ab; PKC-ε Band 1; 50 µg peptide
T3 construct: Band 1 and Band 2 (alternate splicing variants, not identified further) are kept under one molecule; the band is named in the assay field of each row; also called PKC-epsilon; PKC-ε Band 1
T3 sequence (looked up): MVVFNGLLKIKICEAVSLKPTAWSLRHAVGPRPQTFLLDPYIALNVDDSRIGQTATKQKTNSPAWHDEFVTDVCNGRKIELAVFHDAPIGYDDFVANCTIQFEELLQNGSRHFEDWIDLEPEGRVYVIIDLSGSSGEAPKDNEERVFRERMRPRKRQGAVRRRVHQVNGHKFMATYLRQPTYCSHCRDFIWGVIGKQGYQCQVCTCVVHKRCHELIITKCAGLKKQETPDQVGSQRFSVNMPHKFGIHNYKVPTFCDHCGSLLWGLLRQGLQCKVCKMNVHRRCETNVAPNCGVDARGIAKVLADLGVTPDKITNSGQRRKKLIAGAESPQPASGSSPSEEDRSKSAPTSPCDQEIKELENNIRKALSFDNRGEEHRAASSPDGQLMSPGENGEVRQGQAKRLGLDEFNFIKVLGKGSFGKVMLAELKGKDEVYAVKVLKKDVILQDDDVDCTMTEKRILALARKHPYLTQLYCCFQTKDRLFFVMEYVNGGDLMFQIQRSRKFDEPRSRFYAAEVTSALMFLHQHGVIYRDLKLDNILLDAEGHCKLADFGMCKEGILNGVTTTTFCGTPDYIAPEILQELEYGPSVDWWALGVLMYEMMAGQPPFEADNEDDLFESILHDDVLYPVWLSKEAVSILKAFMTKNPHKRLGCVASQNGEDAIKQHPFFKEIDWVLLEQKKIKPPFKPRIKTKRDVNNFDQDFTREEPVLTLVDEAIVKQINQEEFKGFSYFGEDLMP
Description: (§4) The ability of the peptides PRE 2 and PRE 3 (see Table 4) to interfere with the binding of a PKC-α-specific polyclonal antibody (Santa Cruz Biotechnology, Inc.) to PKC-α was determined using a modified version of the protocol outlined above in which the test peptide was added directly to the cell extract prior to electrophoresis at a concentration of either 5× or 15× the concentration of the protein applied to each well of the gel for the Western blots (20 μg).
(§5) Peptides PRE 2, PRE 3 and PRE 4 (see Table 4) were tested for their ability to interfere with the binding of isoform-specific polyclonal antibodies (Santa Cruz Biotechnology, Inc.) to […] using the general protocol described in Example 3. Two bands, representing alternate splicing variants of PKC-ε, were identified on the Western blot using this anti-PKC-ε antibody.

[4] = target: T3, PKC-ε (endogenous, IMR-32 lysate); experiment: WB competition Protocol B, IMR-32 extract, vs anti-PKC-ε Ab; PKC-ε Band 2; 100 µg peptide
Description: as §4, §5

[5] = target: T3, PKC-ε (endogenous, IMR-32 lysate); experiment: WB competition Protocol B, IMR-32 extract, vs anti-PKC-ε Ab; PKC-ε Band 2; 20 µg peptide
Description: as §4, §5

PKC-δ (purified isoform) [6] = target: T1, PKC-δ (purified isoform); experiment: competitive ELISA, coated purified PKC-δ, vs anti-PKC δ (SC-213); PRE 50 µM
Description: as §1, §2, §3

[7] = target: T3, PKC-ε (endogenous, IMR-32 lysate); experiment: WB competition Protocol B, IMR-32 extract, vs anti-PKC-ε Ab; PKC-ε Band 2; 50 µg peptide
Description: as §4, §5

[8] = target: T3, PKC-ε (endogenous, IMR-32 lysate); experiment: WB competition Protocol B, IMR-32 extract, vs anti-PKC-ε Ab; PKC-ε Band 1; 100 µg peptide
Description: as §4, §5

[9] = target: T4, PKC-βII (purified isoform) (Homo sapiens (Human), UniProt P05771 2-621); experiment: competitive ELISA, coated purified PKC-βII, vs anti-PKC βII (SC-210); PRE 50 µM
T4 construct: also called PKC-beta II; PKC beta 2
Description: as §1, §2, §3

[10] = target: T2, PKC-βI (purified isoform); experiment: competitive ELISA, coated purified PKC-βI, vs anti-PKC βI (SC-209); PRE 200 µM
Description: as §1, §2, §3

T1 sequence (Q05655 whole entry, stated change not applied, canonical isoform): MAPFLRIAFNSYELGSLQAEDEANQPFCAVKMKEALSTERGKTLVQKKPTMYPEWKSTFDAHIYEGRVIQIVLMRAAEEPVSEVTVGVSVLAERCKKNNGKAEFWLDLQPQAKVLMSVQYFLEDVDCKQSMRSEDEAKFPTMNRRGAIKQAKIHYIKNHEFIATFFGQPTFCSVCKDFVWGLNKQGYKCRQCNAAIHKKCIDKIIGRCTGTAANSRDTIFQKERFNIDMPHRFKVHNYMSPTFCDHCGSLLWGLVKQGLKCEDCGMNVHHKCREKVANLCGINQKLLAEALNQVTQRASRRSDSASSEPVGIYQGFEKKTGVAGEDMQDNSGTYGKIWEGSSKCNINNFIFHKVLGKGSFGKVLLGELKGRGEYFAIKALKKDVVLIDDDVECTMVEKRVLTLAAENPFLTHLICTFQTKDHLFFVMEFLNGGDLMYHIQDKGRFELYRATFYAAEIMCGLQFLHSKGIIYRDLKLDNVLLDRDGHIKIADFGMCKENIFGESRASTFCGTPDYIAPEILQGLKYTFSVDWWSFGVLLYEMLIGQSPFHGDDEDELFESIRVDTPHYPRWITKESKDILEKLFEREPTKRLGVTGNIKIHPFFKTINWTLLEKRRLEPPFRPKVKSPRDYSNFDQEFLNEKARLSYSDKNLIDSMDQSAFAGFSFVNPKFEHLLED
T2 sequence (P05771 2-671 limits assumed): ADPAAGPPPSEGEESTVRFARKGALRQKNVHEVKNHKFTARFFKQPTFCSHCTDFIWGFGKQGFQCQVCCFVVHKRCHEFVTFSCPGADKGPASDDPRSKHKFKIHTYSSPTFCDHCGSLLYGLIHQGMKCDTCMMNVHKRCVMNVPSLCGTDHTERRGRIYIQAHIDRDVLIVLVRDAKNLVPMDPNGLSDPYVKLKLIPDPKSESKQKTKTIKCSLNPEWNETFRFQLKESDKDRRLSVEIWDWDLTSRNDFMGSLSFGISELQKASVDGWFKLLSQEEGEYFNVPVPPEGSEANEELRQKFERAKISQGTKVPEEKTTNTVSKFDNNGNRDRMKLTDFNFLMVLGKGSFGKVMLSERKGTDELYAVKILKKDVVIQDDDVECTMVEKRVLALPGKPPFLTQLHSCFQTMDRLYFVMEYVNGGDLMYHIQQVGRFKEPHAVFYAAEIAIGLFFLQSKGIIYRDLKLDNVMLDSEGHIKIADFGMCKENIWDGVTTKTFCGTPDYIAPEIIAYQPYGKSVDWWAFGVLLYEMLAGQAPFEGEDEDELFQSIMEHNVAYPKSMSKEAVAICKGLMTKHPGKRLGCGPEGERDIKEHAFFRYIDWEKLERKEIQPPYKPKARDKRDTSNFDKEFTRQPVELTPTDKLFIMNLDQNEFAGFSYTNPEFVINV
T4 sequence (P05771 other isoform, or with tags, fused parts or gaps limits assumed): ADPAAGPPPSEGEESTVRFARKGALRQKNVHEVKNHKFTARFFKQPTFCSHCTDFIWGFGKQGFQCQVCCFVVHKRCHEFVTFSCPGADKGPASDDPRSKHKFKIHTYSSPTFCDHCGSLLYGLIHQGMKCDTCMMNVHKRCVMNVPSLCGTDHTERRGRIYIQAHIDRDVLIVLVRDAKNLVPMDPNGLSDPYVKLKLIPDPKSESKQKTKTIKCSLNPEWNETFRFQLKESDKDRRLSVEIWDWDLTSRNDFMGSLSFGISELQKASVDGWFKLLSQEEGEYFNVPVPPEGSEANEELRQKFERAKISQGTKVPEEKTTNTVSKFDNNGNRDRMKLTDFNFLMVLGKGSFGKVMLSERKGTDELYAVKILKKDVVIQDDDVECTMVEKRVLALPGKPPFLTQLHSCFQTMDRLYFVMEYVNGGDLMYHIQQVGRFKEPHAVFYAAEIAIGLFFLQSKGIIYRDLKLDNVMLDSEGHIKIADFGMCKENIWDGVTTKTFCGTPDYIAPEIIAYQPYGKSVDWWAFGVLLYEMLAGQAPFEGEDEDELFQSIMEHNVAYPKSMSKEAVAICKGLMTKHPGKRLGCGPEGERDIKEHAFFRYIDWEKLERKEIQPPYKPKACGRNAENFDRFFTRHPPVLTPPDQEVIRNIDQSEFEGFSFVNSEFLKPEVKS

relative binding capacity (100-%n, DMSO subtracted) (PKC-δ (purified isoform) [1]): 17.3%
relative binding capacity (100-%n, DMSO subtracted) [2]: 6.02%
Band Intensity [3]: 0
Inhibition (%) [3]: 100%
Relative Intensity (%) [3]: 0%
Band Intensity [4]: 0
Inhibition (%) [4]: 100%
Relative Intensity (%) [4]: 0%
Band Intensity [5]: 153
Inhibition (%) [5]: 46.6%
Relative Intensity (%) [5]: 53.3%
relative binding capacity (100-%n, DMSO subtracted) (PKC-δ (purified isoform) [6]): 29.2%
Band Intensity [7]: 0
Inhibition (%) [7]: 100%
Relative Intensity (%) [7]: 0%
Band Intensity [8]: 0
Inhibition (%) [8]: 100%
Relative Intensity (%) [8]: 0%
relative binding capacity (100-%n, DMSO subtracted) [9]: 2.69%
relative binding capacity (100-%n, DMSO subtracted) [10]: 7.46%
Binder: Ac-KDAQNLIGISI-NH2 (also called peptide PRE 4) [PRE 4]
